Test results: patent US10500249B2, “Compositions and methods for preventing or treating diseases, conditions, or processes characterized by aberrant fibroblast proliferation and extracellular matrix deposition” (MOERAE MATRIX, INC., priority 2014, dated 2019)

Key:
Assay in all cases: Kinase Profiling Assay
Type in all cases: biochemical
Conditions in all cases: 100 μM
BrSK2 (h) = target: T1, BrSK2 (h) (Homo sapiens, UniProt Q8IWQ3)
T1 sequence (Q8IWQ3 1-736): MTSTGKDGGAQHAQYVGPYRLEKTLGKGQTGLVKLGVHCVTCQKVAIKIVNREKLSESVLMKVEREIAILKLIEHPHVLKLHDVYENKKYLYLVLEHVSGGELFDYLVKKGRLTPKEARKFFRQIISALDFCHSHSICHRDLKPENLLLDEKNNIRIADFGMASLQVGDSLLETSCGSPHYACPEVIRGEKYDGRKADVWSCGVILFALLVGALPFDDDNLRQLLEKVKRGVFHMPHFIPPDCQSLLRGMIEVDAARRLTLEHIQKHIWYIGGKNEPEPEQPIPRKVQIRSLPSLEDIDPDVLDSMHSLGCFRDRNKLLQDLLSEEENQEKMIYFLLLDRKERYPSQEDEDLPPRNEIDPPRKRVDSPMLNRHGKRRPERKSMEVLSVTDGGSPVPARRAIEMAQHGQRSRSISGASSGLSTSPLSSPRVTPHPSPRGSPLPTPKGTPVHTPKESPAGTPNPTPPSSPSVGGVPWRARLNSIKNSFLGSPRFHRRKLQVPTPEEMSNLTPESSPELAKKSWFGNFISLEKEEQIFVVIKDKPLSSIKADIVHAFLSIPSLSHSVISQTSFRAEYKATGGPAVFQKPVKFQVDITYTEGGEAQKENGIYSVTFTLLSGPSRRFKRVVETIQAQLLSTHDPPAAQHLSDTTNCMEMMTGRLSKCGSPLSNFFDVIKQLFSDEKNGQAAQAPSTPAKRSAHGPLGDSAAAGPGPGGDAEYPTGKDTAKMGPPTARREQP
Protocol: (§1) Every kinase activity measurement was conducted in duplicate.
(§2) Specifically, in these assays, a positively charged substrate is phosphorylated with a radiolabeled phosphate group from an ATP if the kinase is not inhibited by an inhibitor peptide. The positively charged substrate then is attracted to a negatively charged filter membrane, quantified with a scintillation counter, and compared to a 100% activity control.
(§3) In addition to determining the IC50 of the compound, the specificity of MK2 inhibitory peptides was assessed by examining activities of all 266 human kinases available for testing in the Millipore kinase profiling service (Table 1).

EphA3 (h) = target: T2, EphA3 (h) (Homo sapiens, UniProt P29320)
T2 construct: purchased Millipore
T2 sequence (P29320 21-983): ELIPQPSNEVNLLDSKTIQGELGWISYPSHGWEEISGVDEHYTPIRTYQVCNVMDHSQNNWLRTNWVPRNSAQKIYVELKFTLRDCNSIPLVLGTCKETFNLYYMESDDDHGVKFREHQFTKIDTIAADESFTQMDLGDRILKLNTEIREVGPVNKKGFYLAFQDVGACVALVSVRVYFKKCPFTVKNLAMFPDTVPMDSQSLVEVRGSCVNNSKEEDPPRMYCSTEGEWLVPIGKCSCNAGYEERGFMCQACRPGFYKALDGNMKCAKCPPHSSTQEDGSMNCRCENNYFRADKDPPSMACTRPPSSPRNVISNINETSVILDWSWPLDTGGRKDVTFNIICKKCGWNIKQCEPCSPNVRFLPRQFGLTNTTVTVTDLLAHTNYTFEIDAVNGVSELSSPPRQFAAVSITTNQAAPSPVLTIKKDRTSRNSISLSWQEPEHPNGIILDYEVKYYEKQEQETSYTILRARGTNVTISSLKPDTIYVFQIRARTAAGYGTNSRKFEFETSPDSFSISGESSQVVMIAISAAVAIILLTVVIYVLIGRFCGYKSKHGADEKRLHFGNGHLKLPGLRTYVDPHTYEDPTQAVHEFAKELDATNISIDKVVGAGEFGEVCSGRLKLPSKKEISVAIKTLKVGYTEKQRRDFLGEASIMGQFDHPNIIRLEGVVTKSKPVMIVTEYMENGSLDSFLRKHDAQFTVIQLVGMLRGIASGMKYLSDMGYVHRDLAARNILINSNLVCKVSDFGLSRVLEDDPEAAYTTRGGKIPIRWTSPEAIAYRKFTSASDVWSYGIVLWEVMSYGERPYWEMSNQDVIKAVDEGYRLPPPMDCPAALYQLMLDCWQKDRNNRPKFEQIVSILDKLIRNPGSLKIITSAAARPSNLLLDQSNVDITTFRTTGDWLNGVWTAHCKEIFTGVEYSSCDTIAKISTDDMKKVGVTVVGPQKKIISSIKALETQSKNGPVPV
Protocol: as §1, §2, §3

JNK3 (h) = JNK3 (h) (Homo sapiens, UniProt P53779)
JNK3 (h), sequence (P53779 whole entry): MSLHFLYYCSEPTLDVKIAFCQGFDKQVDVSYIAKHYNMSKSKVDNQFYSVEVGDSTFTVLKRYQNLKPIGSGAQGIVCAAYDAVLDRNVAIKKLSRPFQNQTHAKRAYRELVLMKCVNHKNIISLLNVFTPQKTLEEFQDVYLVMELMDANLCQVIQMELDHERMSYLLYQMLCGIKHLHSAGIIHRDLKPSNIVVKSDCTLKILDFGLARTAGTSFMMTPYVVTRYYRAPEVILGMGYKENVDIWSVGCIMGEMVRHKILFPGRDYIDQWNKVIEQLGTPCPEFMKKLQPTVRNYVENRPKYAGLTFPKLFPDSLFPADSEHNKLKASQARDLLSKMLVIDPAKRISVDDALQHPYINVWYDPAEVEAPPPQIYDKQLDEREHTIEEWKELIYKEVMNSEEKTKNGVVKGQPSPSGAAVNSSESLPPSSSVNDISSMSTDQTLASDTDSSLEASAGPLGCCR
Protocol: as §1, §2, §3

ROCK-I (h) = ROCK-I (h) (Homo sapiens, UniProt Q13464)
ROCK-I (h), sequence (Q13464 whole entry): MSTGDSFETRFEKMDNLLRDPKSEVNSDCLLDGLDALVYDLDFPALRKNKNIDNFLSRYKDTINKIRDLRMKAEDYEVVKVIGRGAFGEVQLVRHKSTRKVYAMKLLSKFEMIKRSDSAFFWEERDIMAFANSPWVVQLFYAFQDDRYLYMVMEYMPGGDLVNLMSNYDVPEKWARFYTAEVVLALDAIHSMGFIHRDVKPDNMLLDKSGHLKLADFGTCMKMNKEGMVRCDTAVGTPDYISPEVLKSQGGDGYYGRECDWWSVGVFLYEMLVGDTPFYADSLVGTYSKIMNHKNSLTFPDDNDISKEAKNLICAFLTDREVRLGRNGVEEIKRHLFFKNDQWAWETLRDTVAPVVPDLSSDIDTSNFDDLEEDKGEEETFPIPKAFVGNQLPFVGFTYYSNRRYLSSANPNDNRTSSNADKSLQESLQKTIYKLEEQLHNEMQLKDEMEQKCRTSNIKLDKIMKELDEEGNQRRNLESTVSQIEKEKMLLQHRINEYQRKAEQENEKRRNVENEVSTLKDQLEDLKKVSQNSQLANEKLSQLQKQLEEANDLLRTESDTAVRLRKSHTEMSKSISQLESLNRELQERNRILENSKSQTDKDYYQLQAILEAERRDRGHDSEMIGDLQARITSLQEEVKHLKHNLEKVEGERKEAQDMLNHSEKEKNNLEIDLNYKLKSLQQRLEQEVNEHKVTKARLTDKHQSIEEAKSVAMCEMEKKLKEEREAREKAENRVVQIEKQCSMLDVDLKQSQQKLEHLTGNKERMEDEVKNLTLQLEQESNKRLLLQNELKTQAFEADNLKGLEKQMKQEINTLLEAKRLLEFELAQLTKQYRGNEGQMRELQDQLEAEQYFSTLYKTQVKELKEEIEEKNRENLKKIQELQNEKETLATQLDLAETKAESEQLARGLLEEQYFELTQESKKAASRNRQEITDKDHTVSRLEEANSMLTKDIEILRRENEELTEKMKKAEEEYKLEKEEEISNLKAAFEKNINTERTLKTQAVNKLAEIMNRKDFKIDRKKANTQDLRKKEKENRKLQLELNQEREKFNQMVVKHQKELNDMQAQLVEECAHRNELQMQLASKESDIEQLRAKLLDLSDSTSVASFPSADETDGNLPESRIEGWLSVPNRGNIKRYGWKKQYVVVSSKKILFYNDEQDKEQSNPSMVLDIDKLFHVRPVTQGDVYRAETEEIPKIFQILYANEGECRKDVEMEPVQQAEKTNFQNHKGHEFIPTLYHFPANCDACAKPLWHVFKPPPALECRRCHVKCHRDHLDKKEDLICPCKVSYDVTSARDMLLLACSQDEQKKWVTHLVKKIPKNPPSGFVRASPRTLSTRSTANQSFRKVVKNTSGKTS
Protocol: as §1, §2, §3

| Sequence | % activity (BrSK2 (h)) [%] | % activity (EphA3 (h)) [%] | % activity (JNK3 (h)) [%] | % activity (ROCK-I (h)) [%] |
| --- | --- | --- | --- | --- |
| FAKLAARLYRKALARQLGVAA [MMI-0300] | 83 | 6 | 89 | 79 |
| HRRIKAWLKKIKALARQLGVAA (Mammalian) [MMI-0500] | 84 | 33 | 171 | 17 |
| KAFAKLAARLYRKALARQLGVAA [MMI-0400] | 86 | 12 | 70 | 73 |
| YARAAARQARAKALNRQLGVA (Mammalian) [MMI-0200] | – | – | 90 | – |
